One block for each binder: values may come before it. Ends that are not written are not given here. * marks the point of attachment. Biotin = O=C1N[C@H]2[C@H](CS[C@H]2CCCCC(=O)*)N1; Ahx = NCCCCCC(=O)O
What was measured:
[1] = molecular target: T1, biot-VSIPPRNLGY peptide (biot-Ahx-VSIPPRNLGY) (human); assay: indirect ELISA, peptide captured on NeutrAvidin, 1G5.3 at 10 ng/ml (FIG. 20A)
T1 construct: Synthetic; captured on NeutrAvidin-coated plates; also called unique MSF decapeptide; C-terminal unique tail of MSF
T1 peptide: {Biotin-Ahx}-VSIPPRNLGY
Method: FIG. 20. Indirect ELISA analysis of the interaction of mAb7.1 and 1G5.3 with biot-[…] and rhMSF. A) The biot-[…] peptide (SEQ ID NO:11) (spanning the aa 648-657 sequence at the C-terminus of human MSF) was captured onto Maxisorb plates that had been coated with NeutrAvidin. […] B) Maxisorb plates were coated with rhMSF, and incubated with mAb7.1 hybridoma cultures or purified 1G5.3. […] Wells containing NeutrAvidin (NeutrAvidin in A) or PBS−/− (PBS in B) only were taken as negative controls. Shown are plots from one out of two independent experiments, each performed in duplicate.
Nunc Maxisorb immunoplates were coated (0/N at 4° C.) with NeutrAvidin protein (1 μg/well; Thermo Scientific, Rockford, Ill., USA; Cat No: 31000) in PBS−/−. Biot-[…] (SEQ ID NO:11) peptide (100 μl/well, 10 μg/ml in PBS+/+ containing 0.05% (v/v) Tween 20, washing buffer) was added and captured on the NeutrAvidin layer for 1 h at room temperature; this allowed N→C orientation of the peptide, thus mimicking its topological organization in the context of the MSF protein [19]. Uncoated sites were blocked by incubation for 2 h at room temperature with 2% (w/v) bovine serum albumin (BSA, Sigma Aldrich; Cat No: A7030) in PBS+/+. […] Each sample was analyzed in duplicate and results were reported as mean±SD.

[2] = molecular target: T2, recombinant human Migration Stimulating Factor (rhMSF) (human, UniProt P02751 32-647); assay: immunoaffinity chromatography on a column coupled to 1G5.3
T2 construct: Secreted by the CHO-3E6 clone; also called hrMSF; human recombinant MSF
T2 sequence (P02751 other isoform, or with tags, fused parts or gaps limits assumed): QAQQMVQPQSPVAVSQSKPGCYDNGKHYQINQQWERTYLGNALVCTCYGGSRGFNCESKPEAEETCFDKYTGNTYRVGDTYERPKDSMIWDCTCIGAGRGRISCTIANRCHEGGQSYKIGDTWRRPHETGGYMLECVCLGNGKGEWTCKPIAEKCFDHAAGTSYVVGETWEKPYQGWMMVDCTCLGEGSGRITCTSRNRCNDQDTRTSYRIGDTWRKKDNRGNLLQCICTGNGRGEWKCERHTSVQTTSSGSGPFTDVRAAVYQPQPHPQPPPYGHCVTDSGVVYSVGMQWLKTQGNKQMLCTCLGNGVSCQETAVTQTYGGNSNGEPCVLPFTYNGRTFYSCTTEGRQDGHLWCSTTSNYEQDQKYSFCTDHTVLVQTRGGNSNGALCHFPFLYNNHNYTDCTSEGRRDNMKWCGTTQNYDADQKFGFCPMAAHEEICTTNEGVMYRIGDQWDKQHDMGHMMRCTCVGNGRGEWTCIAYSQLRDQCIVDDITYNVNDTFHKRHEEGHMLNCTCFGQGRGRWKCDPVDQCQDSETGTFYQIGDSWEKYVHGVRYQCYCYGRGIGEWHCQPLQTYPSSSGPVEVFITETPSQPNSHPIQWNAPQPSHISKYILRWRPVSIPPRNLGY
Method: Recombinant human MSF was purified from the conditioned medium of CHO-3E6 by immunoaffinity chromatography (IAC). […] The 1G5.3 column was extensively washed at 5 ml/min with buffer A followed by buffer B (50 mM Tris-HCl, 500 mM NaCl, pH 7.00), and bound rhMSF was eluted with buffer C (3.5 M MgCl2) in a total volume of 4 ml. Homogeneity of the eluted protein was assessed using an analytical Superdex 200 10/300 GL gel filtration column (GE Healthcare), equilibrated and eluted at 0.5 ml/min with buffer B on an AKTA Purifier FPLC system. In addition, aliquots of conditioned medium (input), unbound material (flow through) and eluted protein (eluate) from IAC were resolved on NuPAGE Novex Bis-Tris 10% gels (Thermo Fisher Scientific, Waltham, Mass.) under denaturing and reducing conditions (i.e., in the presence of dithiothreitol). […] Membranes were developed with Immobilon western HRP substrate (Merck Millipore, Darmstadt, Germany) and chemiluminescence recorded on a Chemidoc MP system (Bio-Rad). Throughout the purification process, total protein content was determined using a Bradford protein assay (Bio-Rad) and rhMSF specific titres were measured with an ELISA MSF assay made “in-house” as described below.

[3] = molecular target: T3, human Fibronectin 1 (hFn1) (human, UniProt P02751 32-2477); assay: indirect ELISA, titration of purified 1G5.3 on coated hFn1
T3 construct: Bought from Calbiochem (Cat No 341635)
T3 sequence (P02751 other isoform, or with tags, fused parts or gaps limits assumed): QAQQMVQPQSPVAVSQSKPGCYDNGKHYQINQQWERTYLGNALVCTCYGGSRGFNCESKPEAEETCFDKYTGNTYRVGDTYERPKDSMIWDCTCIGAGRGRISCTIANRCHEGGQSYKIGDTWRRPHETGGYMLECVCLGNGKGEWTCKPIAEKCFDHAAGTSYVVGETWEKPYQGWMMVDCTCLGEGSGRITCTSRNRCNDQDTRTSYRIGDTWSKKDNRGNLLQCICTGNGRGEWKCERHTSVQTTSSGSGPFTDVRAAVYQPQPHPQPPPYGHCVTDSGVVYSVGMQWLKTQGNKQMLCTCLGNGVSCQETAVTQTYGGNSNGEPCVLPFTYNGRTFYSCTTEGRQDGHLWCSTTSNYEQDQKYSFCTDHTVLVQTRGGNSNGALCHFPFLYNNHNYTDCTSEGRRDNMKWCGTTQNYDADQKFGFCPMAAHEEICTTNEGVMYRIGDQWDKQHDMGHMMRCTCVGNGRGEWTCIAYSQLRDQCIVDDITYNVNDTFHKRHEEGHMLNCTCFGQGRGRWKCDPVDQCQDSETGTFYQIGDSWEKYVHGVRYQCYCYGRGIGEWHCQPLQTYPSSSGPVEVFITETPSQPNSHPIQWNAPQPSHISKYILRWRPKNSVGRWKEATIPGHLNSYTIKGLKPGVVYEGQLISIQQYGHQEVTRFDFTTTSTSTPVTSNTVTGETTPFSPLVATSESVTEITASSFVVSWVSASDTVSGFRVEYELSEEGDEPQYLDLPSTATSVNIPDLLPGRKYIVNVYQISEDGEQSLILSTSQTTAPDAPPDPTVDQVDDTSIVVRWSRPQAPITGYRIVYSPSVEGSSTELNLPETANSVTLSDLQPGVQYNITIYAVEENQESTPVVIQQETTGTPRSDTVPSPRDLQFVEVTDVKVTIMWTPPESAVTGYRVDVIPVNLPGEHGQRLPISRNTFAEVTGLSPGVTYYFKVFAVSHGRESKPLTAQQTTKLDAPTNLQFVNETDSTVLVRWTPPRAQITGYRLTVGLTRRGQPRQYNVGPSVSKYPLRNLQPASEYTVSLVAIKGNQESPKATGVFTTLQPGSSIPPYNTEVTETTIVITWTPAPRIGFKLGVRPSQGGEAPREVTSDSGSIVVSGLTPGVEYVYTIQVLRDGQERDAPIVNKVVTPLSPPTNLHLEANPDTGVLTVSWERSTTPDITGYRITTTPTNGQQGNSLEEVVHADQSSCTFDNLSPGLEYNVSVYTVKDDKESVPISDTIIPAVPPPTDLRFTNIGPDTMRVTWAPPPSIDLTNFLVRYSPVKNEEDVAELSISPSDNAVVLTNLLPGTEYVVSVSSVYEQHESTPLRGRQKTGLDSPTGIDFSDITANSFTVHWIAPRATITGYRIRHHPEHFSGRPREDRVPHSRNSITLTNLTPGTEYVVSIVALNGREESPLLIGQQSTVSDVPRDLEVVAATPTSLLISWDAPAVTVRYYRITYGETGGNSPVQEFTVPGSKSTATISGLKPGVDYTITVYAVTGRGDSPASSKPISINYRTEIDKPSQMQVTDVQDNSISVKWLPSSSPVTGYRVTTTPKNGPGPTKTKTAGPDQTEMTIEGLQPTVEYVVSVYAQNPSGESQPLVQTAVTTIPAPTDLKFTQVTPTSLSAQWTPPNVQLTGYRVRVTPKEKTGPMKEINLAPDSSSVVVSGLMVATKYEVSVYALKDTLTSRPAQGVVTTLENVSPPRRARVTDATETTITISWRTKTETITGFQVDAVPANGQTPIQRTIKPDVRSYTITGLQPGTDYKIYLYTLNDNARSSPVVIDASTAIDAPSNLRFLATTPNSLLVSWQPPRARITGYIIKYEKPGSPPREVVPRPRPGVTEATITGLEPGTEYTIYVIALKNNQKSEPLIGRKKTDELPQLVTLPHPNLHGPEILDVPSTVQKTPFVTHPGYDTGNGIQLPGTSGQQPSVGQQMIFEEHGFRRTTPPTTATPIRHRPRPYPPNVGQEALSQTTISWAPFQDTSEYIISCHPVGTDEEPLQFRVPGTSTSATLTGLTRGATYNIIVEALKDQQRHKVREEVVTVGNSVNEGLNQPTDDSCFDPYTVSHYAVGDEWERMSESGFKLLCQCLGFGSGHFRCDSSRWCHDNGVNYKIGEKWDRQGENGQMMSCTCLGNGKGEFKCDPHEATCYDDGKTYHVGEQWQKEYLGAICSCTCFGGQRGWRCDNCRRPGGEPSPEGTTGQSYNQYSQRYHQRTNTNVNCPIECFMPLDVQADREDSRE
Method: ELISA plates (Nunc Maxisorb immunoplates Cat. No.: 446612) were coated (0/N at 4° C.) with His-MSF (1-0.5 μg/well), supernatant from CHO-3E6 (50 μl) or hFn1 (1 μg/well), diluted in 15 mM Na carbonate buffer (pH9.6). After coating plates are washed three times with PBS+/+ and 0.05% Tween 20 (washing buffer), then non-specific interactions are blocked by incubation for 2 h at room temperature with 5% (w/v) dry milk in washing buffer. Wells were washed three times with washing buffer, then aliquots of rabbit polyclonal antiserum, supernatants from anti-MSF hybridomas or purified 1G5.3 diluted in washing buffer were added and incubated 1 h at room temperature. Anti-rabbit IgG or anti-mouse IgG labelled with horse-radish peroxidase (Cat No: GENA934 and GENA931 respectively, GE […]) were then added (1/2000 in washing buffer) and incubated 1 h at room temperature. Reaction was developed with 3,3′,5,5′-tetramethylbenzidine (TMB; 1 Step™ ULTRA TMB-ELISA, Thermo Scientific, Rockford, Ill., USA; Cat No: 34019) and stopped with 2N H₂SO₄ before reading absorbance at 450 nm with an automated plate reader (Versamax microplate reader). Baseline was obtained adding anti-MSF antibody on buffer-coated wells.
mAb 1G5.3 was purified from culture supernatant of hybridoma cells by affinity chromatography on Protein-G sepharose. […] The purified antibody was finally analyzed in ELISA. […]

[4] = molecular target: T4, human Migration Stimulating Factor (MSF), natural protein in human cancer tissues (human, UniProt P02751 32-647); assay: immunohistochemistry on paraffin sections of breast and lung cancer
T4 construct: Natural MSF as stained in formalin-fixed paraffin-embedded sections of breast and lung cancer; also called human MSF
Method: Paraffin-embedded human tissue sections were cut and kept overnight at 37° C. Sections were dewaxed in Bioclear. Antigen unmasking was performed in a Decloaker Chamber in DIVA Buffer 1× (Biocare Medical Cat No: DV2004) for 3 minutes at 125° C. and 5 minutes at 90° C.
After blocking endogenous peroxidases with Peroxidized-1 (Biocare Medical Cat No: PX968) for 15 minutes, non-specific binding sites were blocked with Background Sniper solution (Biocare Medical Cat No: BS966) for 30 minutes. Human tissue samples were then incubated 1 h with 1G5.3 (1/150-1/300) to identify MSF, or with mouse monoclonal anti-human CD68 (Dako Cat No: M0876, clone PG-M1, 780 μg/ml for 1 h) to identify macrophages. […] Then the reactions were developed with 3,3′-Diaminobenzidine tetrahydrochloride (Biocare Medical Cat No: DB801). Slides were counterstained for 3 min with haematoxylin solution.

[5] = molecular target: T2, recombinant human Migration Stimulating …; assay: sandwich ELISA, 1G5.3-F(ab)′2 coated, rhMSF standard curve
Method: To measure MSF levels in biological fluids a sandwich ELISA has been developed. To this aim ELISA plates were incubated O/N at 4° C. with 250 ng/well of 1G5.3 or 500 ng/well of the 1G5.3-F(ab)′2 fragment diluted in PBS−/−, pH 7.0. After coating, plates were washed three times with 300 μl of washing buffer and then blocked with 5% dry milk for 2 h at 37° C. 100 μl of human plasma [informed consents were obtained] diluted 1/10 in washing buffer containing 2% Bovine Serum Albumin were then added and incubated for 1 h at room temperature. In the same plate a standard curve was generated using purified recombinant human MSF. After washing, plates were incubated with commercial biotinylated polyclonal Sheep IgG recognizing human hFn1 (0.25 μg/ml in washing buffer; R&D Cat No: BAF1918) for 1 h at room temperature. Finally, 100 μl of peroxidase-streptavidin (BioSpa Cat No: SB01-161) diluted 1/10000 in washing buffer were added and incubated 1 h at room temperature. Plates were then washed and incubated with 100 μl/well of the chromogenic substrate TMB before blocking with 2N H2SO4. Absorbance was read at 450 nm as described above. Linear regression was used to calculate MSF concentration in plasma samples from the standard curve made with recombinant MSF.
The 1G5.3-F(ab)′2 fragment was then tested in the sandwich ELISA following the same procedure outlined above. […]

- binding result [1]: binds
- binding result [2]: binds
- binding result [4]: binds
B1: monoclonal antibody 1G5.3 (antibody, mouse IgG1, kappa, V domains shown)
VH: EVKIEESGGGLVQPGGSMKLSCVASGFTFSNDWMNWVRQSPEKGLEWVAEIRMKSDNYATYYAESVKGRFTISRDDSKNSVYLQMNNLRAEDNGIYYCTSWDYWGQGTTLTVSS
VL: DIVMSQSPSSLAVSTGEKVTMNCRSSHYLLNSRTRKNFLSWYQQKPGQSPQLLIYWASTRYSGVPDRFTGSGSGTDFTLTISSVQAEDLAVYYCKQSYNLHTFGGGTKLEIKR
notes: Mouse IgG1, kappa; Used purified (Protein G) or as hybridoma supernatant; also called mAb 1G5.3; 1G5.3 mAb
- binding result [3]: no binding (tested: 10 µg/ml to 0.005 ng/ml of 1G5.3)

- binding result [5]: binds
B2: 1G5.3-F(ab)′2 fragment (other, not shown: a dimerising Fc or GST)
heavy: B1 VH
light: DIVMSQSPSSLAVSTGEKVTMNCRSSHYLLNSRTRKNFLSWYQQKPGQSPQLLIYWASTRYSGVPDRFTGSGSGTDFTLTISSVQAEDLAVYYCKQSYNLHTFGGGTKLEIKRADAAPTVSIFPPSSEQLTSGGASVVCFLNNFYPKDINVKWKIDGSERQNGVLNSWTDQDSKDSTYSMSSTLTLTKDEYERHNSYTCEATHKTSTSPIVKSFNRNEC
notes: Made from purified 1G5.3 by pepsin digestion; 110 kDa non-reduced; also called anti-human MSF 1G5.3 F(ab)′2 fragment

Source: US20200283515A1 (HUMANITAS MIRASOLE S P A, published 2020)
